# Publication PMC3672285 (RNA Biology, 2013)
# B1: His-tagged DnaG of S. solfataricus (natural protein, UniProt P95980 1-406, looked up)
# chain: MSFQMKYDIRLRFEVEGIVEKTDVIGAIFGQTENLFGDEFDLRELQDKGRLGRIIVEVKTKGGKSEGEIIIPSNLDRIETALIAAMVESVDKVGPYNSKFELIEIEDIRAEKLKKIIERAKGILSSWSKEKSLDIKEVINEISSAVKVGEITEYGPERLPAGPDVDKDPNLIIVEGRADVINLLRYGYKNVIAVEGATSRIPETLINLSKMKKTVIAFLDGDHGGDLILKELLSNNVKIDFVARAPIGREVEELTGKEIAKALSNMMPLTQYLKKVQEAEQAIAKNVIAKEEKPIQSETTQQVVQITLPQNILEEIKKLPGTLEGVLYDNNWNLIEKVQVRDIIPKLEAYEDNKVAYIIFDGVITQRLLDLASQKNIKMIIGARIGGINKRPQNVDILTFTDIISS
# B2: His-tagged Rrp4 of S. solfataricus (natural protein, UniProt Q9UXC4 1-249, looked up)
# chain: MNMSQSQKIVLQPRSIVVPGELLAEGEFQIPWSPYILKINSKYYSTVVGLFDVKDTQFEVIPLEGSFYYPKINDIVIGLVEDVEIYGWVVDIKAPYKAYLPASNLLGRSINVGEDLRRYLDVGDYVIARIENFDRSIDPVLSVKGKDLGRVSNGIVIDIMPVKVPRVIGKNKSMYETLTSKSGCSIFVANNGRIWATCPSRFSEEILIEAIRKIENESHIKGLTDRIKQFIEEKLGERNASSGETKTNS
# B3: His-tagged Csl4 of S. solfataricus (natural protein, UniProt Q980J9 1-189, looked up)
# chain: MRTQGELTLPGEELAVIEEFMTGDGTYEQNGIVRAAVVGKIFYDMLNRKSNVLGFKKIIFQHLKKAKYVIGIVNSIKEDSALVSIVGIEERGLASPISAYLHISQISNKKINNVTDAIKIGDVIKAKLLSYTFPLALTIKMKDLGVIYARCSRCGYLLIKQDENNLKCQRCGNIEQRKIGSYMVKKGGN
# B4: Strep-tagged Csl4 of S. solfataricus (natural protein, UniProt Q980J9 1-189, looked up)
# chain: B3 chain
# B5: His-tagged Rrp41 of S. solfataricus (natural protein, UniProt Q9UXC2 1-248, looked up)
# chain: MREMLQVERPKLILDDGKRTDGRKPDELRSIKIELGVLKNADGSAIFEMGNTKAIAAVYGPKEMHPRHLSLPDRAVLRVRYHMTPFSTDERKNPAPSRREIELSKVIREALESAVLVELFPRTAIDVFTEILQADAGSRLVSLMAASLALADAGIPMRDLIAGVAVGKADGVIILDLNETEDMWGEADMPIAMMPSLNQVTLFQLNGSMTPDEFRQAFDLAVKGINIIYNLEREALKSKYVEFKEEGV
# How the values were obtained:
# [1] = molecular target: T1, Strep-Csl4-exosome (Strep-Csl4, His6-Rrp41, His6-Rrp42) (S. solfataricus, UniProt Q9UXC2 1-248; Q9UXC0 1-275; Q980J9 1-189); assay: pull-down
# T1 sequence (looked up) 1: B5 chain
# T1 sequence (looked up) 2: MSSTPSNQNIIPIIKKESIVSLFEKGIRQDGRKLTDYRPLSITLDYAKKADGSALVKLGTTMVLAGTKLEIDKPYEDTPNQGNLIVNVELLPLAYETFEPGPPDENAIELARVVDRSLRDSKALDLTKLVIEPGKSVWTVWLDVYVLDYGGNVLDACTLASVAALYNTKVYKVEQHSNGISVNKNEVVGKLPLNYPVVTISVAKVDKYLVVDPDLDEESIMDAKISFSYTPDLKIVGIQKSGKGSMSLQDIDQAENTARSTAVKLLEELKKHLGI
# T1 sequence (looked up) 3: B3 chain
# [2] = molecular target: T2, Rrp41-Rrp42 hexamer, His-tagged subunits (S. solfataricus, UniProt Q9UXC2 1-248; Q9UXC0 1-275); assay: co-IP
# T2 sequence (looked up) 1: B5 chain
# T2 sequence (looked up) 2: T1 sequence (looked up) 2
# [3] = molecular target: B2; assay: pull-down
# [4] = molecular target: T3, His-tagged Rrp42 of S. solfataricus (S. solfataricus, UniProt Q9UXC0 1-275); assay: SEC
# T3 sequence (looked up): T1 sequence (looked up) 2
binder,measurement,setting,value
B1,binding result,[1],binds
B2,binding result,[2],binds
B3,binding result,[2],binds
B4,binding result,[3],binds
B5,binding result,[4],binds
